Measurements published in patent publication US20250262210A1 (TRUSTEES OF COLUMBIA UNIVERSITY IN THE CITY OF NEW YORK, published 2025).

Assays:
Assay in all cases: IP/MS, LZTR1 wild type-FLAG, U87
FBX038 = molecular target: T1, FBX038 (human, UniProt Q6PIJ6 1-1188, limits assumed)
T1 construct: Printed with a zero; probably FBXO38
T1 sequence (looked up): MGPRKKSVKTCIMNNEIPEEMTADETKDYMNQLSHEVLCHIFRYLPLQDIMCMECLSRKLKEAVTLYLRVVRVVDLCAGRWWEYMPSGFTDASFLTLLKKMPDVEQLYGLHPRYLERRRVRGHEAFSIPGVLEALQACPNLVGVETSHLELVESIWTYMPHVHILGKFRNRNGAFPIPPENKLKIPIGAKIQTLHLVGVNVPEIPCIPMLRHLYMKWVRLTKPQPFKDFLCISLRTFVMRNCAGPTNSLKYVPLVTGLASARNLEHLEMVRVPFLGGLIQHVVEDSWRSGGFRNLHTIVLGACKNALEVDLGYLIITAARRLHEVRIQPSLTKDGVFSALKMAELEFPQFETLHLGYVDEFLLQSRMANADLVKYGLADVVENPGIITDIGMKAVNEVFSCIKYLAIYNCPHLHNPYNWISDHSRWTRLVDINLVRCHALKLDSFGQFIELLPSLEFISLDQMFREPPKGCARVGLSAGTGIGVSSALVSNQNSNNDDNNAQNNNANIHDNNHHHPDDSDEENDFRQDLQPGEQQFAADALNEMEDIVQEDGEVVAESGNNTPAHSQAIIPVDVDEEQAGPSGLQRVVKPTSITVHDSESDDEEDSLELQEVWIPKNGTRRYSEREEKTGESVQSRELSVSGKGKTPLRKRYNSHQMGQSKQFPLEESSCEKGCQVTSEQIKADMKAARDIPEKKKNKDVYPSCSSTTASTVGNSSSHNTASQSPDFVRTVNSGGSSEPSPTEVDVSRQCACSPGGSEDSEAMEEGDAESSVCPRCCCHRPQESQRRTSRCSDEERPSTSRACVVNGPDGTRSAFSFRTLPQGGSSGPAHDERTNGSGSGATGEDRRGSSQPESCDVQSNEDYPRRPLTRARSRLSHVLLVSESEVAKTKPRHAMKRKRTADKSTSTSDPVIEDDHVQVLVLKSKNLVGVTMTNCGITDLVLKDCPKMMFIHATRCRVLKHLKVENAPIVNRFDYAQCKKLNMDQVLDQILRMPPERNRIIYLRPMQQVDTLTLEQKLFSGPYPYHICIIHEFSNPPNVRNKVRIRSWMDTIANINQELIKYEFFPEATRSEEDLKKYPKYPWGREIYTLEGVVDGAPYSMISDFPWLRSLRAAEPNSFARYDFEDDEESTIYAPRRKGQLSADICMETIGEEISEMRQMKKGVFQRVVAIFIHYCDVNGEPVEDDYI
How it was run: (§1)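 Extracted peptides in 3% acetonitrile/0.1% formic acid ran on a 50 cm C18 column into an Orbitrap Fusion, with MaxQuant identification and spectral counting.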

PARP14 = PARP14 (human, UniProt Q460N5 1-1801, limits assumed)
How it was run: as §1

RICTOR = RICTOR (human, UniProt Q6R327 1-1708, limits assumed)
How it was run: as §1

RICTOR, sequence (Q6R327 whole entry): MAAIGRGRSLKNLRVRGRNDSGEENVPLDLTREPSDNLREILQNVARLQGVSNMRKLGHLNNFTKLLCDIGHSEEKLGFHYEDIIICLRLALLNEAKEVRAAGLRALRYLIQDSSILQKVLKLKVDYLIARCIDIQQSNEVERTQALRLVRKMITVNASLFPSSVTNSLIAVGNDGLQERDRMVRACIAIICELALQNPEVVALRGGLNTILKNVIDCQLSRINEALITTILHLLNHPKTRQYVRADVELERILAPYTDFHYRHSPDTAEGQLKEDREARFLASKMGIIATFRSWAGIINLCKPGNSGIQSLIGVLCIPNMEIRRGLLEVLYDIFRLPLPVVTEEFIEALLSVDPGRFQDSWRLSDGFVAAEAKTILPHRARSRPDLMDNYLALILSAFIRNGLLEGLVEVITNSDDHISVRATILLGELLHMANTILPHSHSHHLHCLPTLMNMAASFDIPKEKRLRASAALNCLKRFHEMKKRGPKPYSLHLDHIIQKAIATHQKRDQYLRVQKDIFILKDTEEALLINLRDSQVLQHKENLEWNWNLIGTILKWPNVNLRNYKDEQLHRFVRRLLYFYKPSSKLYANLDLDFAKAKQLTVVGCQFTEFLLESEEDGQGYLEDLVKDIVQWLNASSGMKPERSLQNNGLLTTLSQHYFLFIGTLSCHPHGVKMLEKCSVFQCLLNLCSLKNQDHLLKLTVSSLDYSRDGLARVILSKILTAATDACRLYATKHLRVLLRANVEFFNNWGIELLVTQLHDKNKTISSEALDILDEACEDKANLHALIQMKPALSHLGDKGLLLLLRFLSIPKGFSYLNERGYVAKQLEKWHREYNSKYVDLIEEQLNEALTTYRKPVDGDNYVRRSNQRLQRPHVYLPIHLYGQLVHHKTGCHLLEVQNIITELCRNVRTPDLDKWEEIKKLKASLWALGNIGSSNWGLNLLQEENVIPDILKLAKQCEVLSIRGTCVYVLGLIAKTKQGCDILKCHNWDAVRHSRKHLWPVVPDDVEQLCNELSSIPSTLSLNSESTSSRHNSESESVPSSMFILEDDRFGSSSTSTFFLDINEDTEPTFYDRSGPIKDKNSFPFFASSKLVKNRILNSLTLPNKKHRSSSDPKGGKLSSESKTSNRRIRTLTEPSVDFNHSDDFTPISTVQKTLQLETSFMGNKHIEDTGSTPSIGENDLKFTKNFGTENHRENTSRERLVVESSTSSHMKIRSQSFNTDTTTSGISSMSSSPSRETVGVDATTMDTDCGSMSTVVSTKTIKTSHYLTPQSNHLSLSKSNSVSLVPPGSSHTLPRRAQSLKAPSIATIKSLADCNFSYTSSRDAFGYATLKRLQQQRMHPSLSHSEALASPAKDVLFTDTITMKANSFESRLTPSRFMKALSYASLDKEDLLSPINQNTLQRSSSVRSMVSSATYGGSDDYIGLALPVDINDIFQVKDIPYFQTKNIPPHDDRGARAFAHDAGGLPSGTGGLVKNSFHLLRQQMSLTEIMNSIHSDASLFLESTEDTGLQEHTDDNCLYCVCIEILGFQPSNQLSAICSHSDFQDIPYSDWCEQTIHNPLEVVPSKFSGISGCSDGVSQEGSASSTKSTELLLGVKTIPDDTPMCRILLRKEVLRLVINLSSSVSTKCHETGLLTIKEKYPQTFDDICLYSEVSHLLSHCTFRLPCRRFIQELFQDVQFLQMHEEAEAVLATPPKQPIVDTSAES
PARP14, sequence (Q460N5 whole entry): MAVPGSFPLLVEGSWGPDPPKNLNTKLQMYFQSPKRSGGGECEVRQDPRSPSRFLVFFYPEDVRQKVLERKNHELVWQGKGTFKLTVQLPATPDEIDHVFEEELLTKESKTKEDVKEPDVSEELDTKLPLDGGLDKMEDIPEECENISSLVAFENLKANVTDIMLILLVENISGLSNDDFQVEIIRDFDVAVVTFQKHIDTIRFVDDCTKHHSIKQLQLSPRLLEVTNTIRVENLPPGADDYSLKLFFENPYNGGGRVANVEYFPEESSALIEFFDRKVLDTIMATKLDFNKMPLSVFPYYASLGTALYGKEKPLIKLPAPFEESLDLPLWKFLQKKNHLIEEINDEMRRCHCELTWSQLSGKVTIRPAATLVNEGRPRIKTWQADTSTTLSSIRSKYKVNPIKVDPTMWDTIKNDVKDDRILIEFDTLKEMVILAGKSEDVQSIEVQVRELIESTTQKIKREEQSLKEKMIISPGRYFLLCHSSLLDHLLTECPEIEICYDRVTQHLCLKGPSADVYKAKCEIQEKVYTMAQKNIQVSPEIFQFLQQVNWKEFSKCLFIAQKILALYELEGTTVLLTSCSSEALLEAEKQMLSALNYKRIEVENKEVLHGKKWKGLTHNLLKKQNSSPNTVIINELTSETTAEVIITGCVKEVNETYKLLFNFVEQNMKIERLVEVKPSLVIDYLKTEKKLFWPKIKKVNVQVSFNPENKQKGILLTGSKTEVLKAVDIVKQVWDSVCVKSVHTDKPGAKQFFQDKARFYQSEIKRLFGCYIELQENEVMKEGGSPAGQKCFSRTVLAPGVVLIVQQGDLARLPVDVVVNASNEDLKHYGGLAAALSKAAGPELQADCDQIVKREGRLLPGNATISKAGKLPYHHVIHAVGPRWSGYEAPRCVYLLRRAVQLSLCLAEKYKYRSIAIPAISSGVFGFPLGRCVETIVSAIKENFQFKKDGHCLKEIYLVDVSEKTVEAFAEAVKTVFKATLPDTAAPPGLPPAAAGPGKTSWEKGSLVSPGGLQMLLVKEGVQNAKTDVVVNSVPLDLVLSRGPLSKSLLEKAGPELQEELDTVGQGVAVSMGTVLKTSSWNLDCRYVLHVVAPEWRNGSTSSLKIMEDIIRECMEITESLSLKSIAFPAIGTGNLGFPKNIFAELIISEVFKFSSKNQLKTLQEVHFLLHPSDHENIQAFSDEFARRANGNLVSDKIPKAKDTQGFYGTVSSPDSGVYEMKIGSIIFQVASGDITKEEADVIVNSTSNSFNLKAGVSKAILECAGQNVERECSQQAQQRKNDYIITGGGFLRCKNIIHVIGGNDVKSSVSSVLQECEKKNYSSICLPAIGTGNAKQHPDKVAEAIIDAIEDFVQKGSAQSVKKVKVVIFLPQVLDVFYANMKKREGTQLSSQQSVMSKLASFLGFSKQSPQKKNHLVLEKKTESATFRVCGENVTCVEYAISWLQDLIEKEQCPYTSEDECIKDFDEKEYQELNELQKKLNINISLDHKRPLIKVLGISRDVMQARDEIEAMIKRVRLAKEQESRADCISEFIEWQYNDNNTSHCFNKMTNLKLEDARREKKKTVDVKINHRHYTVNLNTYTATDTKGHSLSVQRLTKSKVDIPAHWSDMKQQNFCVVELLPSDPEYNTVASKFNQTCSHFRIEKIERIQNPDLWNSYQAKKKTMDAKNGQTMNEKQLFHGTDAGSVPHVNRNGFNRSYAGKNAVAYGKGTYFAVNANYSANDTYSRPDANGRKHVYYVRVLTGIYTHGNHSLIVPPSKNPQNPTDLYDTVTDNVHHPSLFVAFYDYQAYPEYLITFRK

binding result (FBX038): binds
binding result (PARP14): binds
binding result (RICTOR): binds
B1: LZTR1-FLAG (other, human, UniProt Q8N653 1-840, looked up)
chain: MAGPGSTGGQIGAAALAGGARSKVAPSVDFDHSCSDSVEYLTLNFGPFETVHRWRRLPPCDEFVGARRSKHTVVAYKDAIYVFGGDNGKTMLNDLLRFDVKDCSWCRAFTTGTPPAPRYHHSAVVYGSSMFVFGGYTGDIYSNSNLKNKNDLFEYKFATGQWTEWKIEGRLPVARSAHGATVYSDKLWIFAGYDGNARLNDMWTIGLQDRELTCWEEVAQSGEIPPSCCNFPVAVCRDKMFVFSGQSGAKITNNLFQFEFKDKTWTRIPTEHLLRGSPPPPQRRYGHTMVAFDRHLYVFGGAADNTLPNELHCYDVDFQTWEVVQPSSDSEVGGAEVPERACASEEVPTLTYEERVGFKKSRDVFGLDFGTTSAKQPTQPASELPSGRLFHAAAVISDAMYIFGGTVDNNIRSGEMYRFQFSCYPKCTLHEDYGRLWESRQFCDVEFVLGEKEECVQGHVAIVTARSRWLRRKITQARERLAQKLEQEAAPVPREAPGVAAGGARPPLLHVAIREAEARPFEVLMQFLYTDKIKYPRKGHVEDVLLIMDVYKLALSFQLCRLEQLCRQYIEASVDLQNVLVVCESAARLQLSQLKEHCLNFVVKESHFNQVIMMKEFERLSSPLIVEIVRRKQQPPPRTPLDQPVDIGTSLIQDMKAYLEGAGAEFCDITLLLDGHPRPAHKAILAARSSYFEAMFRSFMPEDGQVNISIGEMVPSRQAFESMLRYIYYGEVNMPPEDSLYLFAAPYYYGFYNNRLQAYCKQNLEMNVTVQNVLQILEAADKTQALDMKRHCLHIIVHQFTKVSKLPTLRSLSQQLLLDIIDSLASHISDKQCAELGADI
notes: Expressed in HEK 293T, HeLa or U87 cells; used as cell lysate; also called LZTR1 wild type-FLAG; LZTR1 WT; not shown: FLAG tag at the C-terminus
